Legend:
Assay in all cases: fluorescence polarization
[1] = molecular target: pP53-02
[2] = molecular target: pP53-01
[3] = molecular target: pP53-04
[4] = molecular target: pP53-03

B1: GST-MDM2 (other)
chain: MCNTNMSVPTDGAVTTSQIPASEQETLVRPKPLLLKLLKSVGAQKDTYTMKEVLFYLGQYIMTKRLYDEKQQHIVYCSNDLLGDLFGVPSFSVKEHRKIYTMIYRNLVVVNQQESSDSGTSVSENRCHLEGGSDQKDLVQELQEEKPSSSHLVSRPSTSSRRRAISETEENSDELSGERQRKRHKSDS
In the case of B1, the Kd [1] is reported as 766 nM, the Kd [2] is reported as 2800 nM and the Kd [3] is reported as 334 nM. For the same binder, the Kd [4] was 546 nM.
